PMC8092223

Tests used:
[1] = molecular target: His8-tagged PII protein, PII(WT) (Synechocystis sp. PCC 6803) (UniProt Q55247)
[2] = molecular target: His8-tagged PII protein, PII(WT) (Synechocystis sp. PCC 6803) (UniProt Q55247); assay: BLI; Octet K2; His8-tagged PII variant loaded (10 ug/ml) on Ni-NTA sensor tips, free sites blocked with 72 ug/ml PII(ΔT); analyte GST-PirA 125 to 12,000 nM (or tag-free PirA or GST alone); with ADP (0.1 to 2 mM; 2 mM for variants and controls); 30°C; 50 mM Tris-HCl pH 7.4, 150 mM KCl, 2 mM MgCl2, 0.02% lauryldimethylamine oxide, 0.2 mg/ml BSA; KD from concentration versus maximum response
[3] = molecular target: PII(S49E), phosphomimetic variant, His8-tagged (Synechocystis sp. PCC 6803) (UniProt Q55247); assay: as above

NAGK activity (AGPR-coupled assay; 6 ug NAGK, 2.4 ug PII, 0.1 mM arginine, 1 mM ATP, 1 mM ADP) against PirA from 0 to 30 ug [1]: 50%
Kd [2]: 2900 nM
Kd [3]: 2500 nM
Substance: GST-tagged PirA (Ssr0692, PII-interacting regulator of arginine synthesis) (natural protein)
